Results reported in paper PMC9482650, “Quantitative fragmentomics allow affinity mapping of interactomes” (Nature Communications, 2022).

How the values were obtained:
Experiment in all cases: holdup assay
Parameters in all cases: key: below the threshold = too weak to quantify, mostly under pKd 3.1 to 4
LNX1_1, Q8TBB1 = target: LNX1_1, Q8TBB1
GRIP1_2, Q9Y3R0 = target: T1, GRIP1_2, Q9Y3R0
T1 sequence (Q9Y3R0 145-248, limits assumed, looked up): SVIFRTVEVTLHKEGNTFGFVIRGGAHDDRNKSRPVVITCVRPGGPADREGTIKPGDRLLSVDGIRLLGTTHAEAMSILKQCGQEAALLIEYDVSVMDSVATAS

MAGI2_4, Q86UL8 = target: MAGI2_4, Q86UL8
TJP1_3, Q07157 = target: TJP1_3, Q07157
DLG3_3, Q92796 = target: T2, DLG3_3, Q92796
T2 sequence (Q92796 374-475, limits assumed, looked up): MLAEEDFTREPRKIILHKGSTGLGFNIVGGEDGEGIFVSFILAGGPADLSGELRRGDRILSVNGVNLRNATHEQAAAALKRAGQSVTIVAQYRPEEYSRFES

DLG3_1, Q92796 = target: T3, DLG3_1, Q92796
T3 sequence (Q92796 125-227, limits assumed, looked up): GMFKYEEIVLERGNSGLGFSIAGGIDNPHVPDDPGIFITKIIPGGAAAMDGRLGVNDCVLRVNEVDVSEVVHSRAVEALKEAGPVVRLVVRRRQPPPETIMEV

Inadl_9, Q8NI35 = target: Inadl_9, Q8NI35
TJP3_3, O95049 = target: T4, TJP3_3, O95049
T4 sequence (O95049 375-456, limits assumed, looked up): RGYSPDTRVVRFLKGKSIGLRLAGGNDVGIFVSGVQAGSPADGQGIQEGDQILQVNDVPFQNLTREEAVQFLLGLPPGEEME

LNX1_2, Q8TBB1 = target: LNX1_2, Q8TBB1
Inadl_8, Q8NI35 = target: Inadl_8, Q8NI35
FRMPD2_3, Q68DX3 = target: FRMPD2_3, Q68DX3
DLG3_2, Q92796 = target: T5, DLG3_2, Q92796
T5 sequence (Q92796 221-321, limits assumed, looked up): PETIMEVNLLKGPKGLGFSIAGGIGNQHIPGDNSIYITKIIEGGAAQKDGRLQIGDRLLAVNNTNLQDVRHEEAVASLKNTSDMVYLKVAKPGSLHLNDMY

MAGI2_6, Q86UL8 = target: MAGI2_6, Q86UL8
Inadl_3, Q8NI35 = target: Inadl_3, Q8NI35
PTPN13_1, Q12923 = target: T6, PTPN13_1, Q12923
T6 sequence (Q12923 1088-1188, limits assumed, looked up): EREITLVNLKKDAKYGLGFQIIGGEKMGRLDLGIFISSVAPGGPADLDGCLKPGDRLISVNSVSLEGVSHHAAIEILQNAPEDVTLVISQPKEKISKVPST

CASK, O14936 = target: CASK, O14936
TX1BP3, O14907 = target: T7, TX1BP3, O14907
T7 sequence (O14907 10-122, limits assumed, looked up): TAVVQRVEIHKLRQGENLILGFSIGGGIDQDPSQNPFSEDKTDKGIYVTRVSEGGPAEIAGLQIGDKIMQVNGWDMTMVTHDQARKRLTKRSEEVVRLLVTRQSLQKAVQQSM

NHERF4_4, Q86UT5 = target: NHERF4_4, Q86UT5
LIN7B, Q9HAP6 = target: T8, LIN7B, Q9HAP6
T8 sequence (Q9HAP6 88-185, limits assumed, looked up): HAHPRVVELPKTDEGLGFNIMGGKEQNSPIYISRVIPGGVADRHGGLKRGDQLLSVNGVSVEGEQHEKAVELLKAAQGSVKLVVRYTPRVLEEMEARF

NHERF3_3, Q5T2W1 = target: T9, NHERF3_3, Q5T2W1
T9 sequence (Q5T2W1 238-333, limits assumed, looked up): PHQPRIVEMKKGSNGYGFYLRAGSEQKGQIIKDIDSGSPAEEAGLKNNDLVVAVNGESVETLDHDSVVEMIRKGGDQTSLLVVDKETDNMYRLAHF

SNTG1, Q9NSN8 = target: T10, SNTG1, Q9NSN8
T10 sequence (Q9NSN8 52-150, limits assumed, looked up): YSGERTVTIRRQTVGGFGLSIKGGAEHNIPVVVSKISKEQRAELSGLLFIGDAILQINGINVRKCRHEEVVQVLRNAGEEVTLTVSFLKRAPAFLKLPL

MPP2, Q14168 = target: T11, MPP2, Q14168
T11 sequence (Q14168 180-250, limits assumed, looked up): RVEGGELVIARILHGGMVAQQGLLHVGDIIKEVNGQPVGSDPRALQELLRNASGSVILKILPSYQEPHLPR

APBA1_1, Q02410 = target: T12, APBA1_1, Q02410
T12 sequence (Q02410 651-752, limits assumed, looked up): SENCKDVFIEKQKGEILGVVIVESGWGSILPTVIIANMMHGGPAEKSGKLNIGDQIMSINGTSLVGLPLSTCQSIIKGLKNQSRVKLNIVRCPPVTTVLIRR

DLG4_2, P78352 = target: DLG4_2, P78352
GIPC2, Q8TF65 = target: GIPC2, Q8TF65
MAGI1_1, Q96QZ7 = target: MAGI1_1, Q96QZ7
[1] = plain residues with an end cap or a label only (N-terminal biotin on a linker: ttds)
[2] = plain residues with an end cap or a label only (N-terminal biotin on a linker: ado-ado)

Sequence of NHERF4_4, Q86UT5 (Q86UT5 464-550): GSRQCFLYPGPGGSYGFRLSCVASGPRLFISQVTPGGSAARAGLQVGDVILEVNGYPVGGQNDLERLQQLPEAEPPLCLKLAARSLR
Sequence of DLG4_2, P78352 (P78352 155-259): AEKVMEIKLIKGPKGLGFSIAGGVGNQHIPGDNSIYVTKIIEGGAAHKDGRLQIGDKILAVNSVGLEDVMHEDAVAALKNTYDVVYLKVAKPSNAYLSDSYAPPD
Sequence of CASK, O14936 (O14936 487-570): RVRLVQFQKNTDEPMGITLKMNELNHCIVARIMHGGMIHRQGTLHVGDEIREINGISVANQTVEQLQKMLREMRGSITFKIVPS
Sequence of Inadl_9, Q8NI35 (Q8NI35 1530-1615): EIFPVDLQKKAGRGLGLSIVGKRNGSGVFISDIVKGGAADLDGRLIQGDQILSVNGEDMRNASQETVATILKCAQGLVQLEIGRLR
Sequence of Inadl_8, Q8NI35 (Q8NI35 1425-1530): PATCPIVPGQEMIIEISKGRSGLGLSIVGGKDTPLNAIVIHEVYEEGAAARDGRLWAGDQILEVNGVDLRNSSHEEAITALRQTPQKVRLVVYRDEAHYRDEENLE
Sequence of Inadl_3, Q8NI35 (Q8NI35 359-469): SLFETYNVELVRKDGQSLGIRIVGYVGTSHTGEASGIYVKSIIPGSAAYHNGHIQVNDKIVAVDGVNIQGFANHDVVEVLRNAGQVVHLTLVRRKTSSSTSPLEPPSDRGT
Sequence of MAGI2_6, Q86UL8 (Q86UL8 1141-1229): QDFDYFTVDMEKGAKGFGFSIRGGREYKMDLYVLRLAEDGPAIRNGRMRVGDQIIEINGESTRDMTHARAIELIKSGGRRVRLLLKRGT
Sequence of LNX1_2, Q8TBB1 (Q8TBB1 371-470): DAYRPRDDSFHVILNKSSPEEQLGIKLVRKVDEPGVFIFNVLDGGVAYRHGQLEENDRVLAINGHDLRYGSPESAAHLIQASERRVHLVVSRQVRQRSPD
Sequence of TJP1_3, Q07157 (Q07157 416-512): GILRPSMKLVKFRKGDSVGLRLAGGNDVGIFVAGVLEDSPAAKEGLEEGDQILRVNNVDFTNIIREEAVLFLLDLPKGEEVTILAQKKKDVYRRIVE
Sequence of MAGI1_1, Q96QZ7 (Q96QZ7 1-106): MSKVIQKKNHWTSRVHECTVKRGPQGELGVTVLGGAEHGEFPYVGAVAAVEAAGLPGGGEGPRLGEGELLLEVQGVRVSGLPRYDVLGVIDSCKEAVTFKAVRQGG
Sequence of LNX1_1, Q8TBB1 (Q8TBB1 261-371): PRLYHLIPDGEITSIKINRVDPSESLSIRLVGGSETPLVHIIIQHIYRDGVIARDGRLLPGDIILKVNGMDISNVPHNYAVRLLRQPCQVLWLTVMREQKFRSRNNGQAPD
Sequence of GIPC2, Q8TF65 (Q8TF65 112-203): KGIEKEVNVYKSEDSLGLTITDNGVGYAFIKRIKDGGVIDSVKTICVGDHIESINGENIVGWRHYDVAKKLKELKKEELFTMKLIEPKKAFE
Sequence of MAGI2_4, Q86UL8 (Q86UL8 772-865): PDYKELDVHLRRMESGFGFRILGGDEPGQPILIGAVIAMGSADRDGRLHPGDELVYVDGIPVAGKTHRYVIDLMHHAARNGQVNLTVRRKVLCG
Sequence of FRMPD2_3, Q68DX3 (Q68DX3 1073-1166): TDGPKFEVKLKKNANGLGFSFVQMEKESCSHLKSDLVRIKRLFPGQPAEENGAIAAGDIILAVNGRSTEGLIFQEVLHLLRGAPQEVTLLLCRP

For SEKHFRETEV [HTLV1-TAX1, P03409], the pKd (LNX1_1, Q8TBB1; [1]) was 3.89, the pKd (GRIP1_2, Q9Y3R0; [1]) was “below the threshold” and the pKd (MAGI2_4, Q86UL8; [1]) was 4.49. The pKd (TJP1_3, Q07157; [1]) was “below the threshold”, the pKd (DLG3_3, Q92796; [1]) was 5.34 and the pKd (DLG3_1, Q92796; [1]) was 4.58. The pKd (Inadl_9, Q8NI35; [1]) was “below the threshold”, the pKd (TJP3_3, O95049; [1]) was “below the threshold” and the pKd (LNX1_2, Q8TBB1; [1]) was 3.71. The pKd (Inadl_8, Q8NI35; [1]) was 3.86, the pKd (FRMPD2_3, Q68DX3; [1]) was 3.77 and the pKd (DLG3_2, Q92796; [1]) was 5.56. The pKd (MAGI2_6, Q86UL8; [1]) was 4.43, the pKd (Inadl_3, Q8NI35; [1]) was 3.69 and the pKd (PTPN13_1, Q12923; [1]) was “below the threshold”. The pKd (CASK, O14936; [1]) was “below the threshold”, the pKd (TX1BP3, O14907; [1]) was 6.2 and the pKd (NHERF4_4, Q86UT5; [1]) was “below the threshold”. For the same binder, the pKd (LIN7B, Q9HAP6; [1]) was 3.83, the pKd (NHERF3_3, Q5T2W1; [1]) was “below the threshold” and the pKd (SNTG1, Q9NSN8; [1]) was 5.43. For the same binder, the pKd (MPP2, Q14168; [1]) was “below the threshold”, the pKd (APBA1_1, Q02410; [1]) was “below the threshold” and the pKd (DLG4_2, P78352; [1]) was 5.51. For the same binder, the pKd (GIPC2, Q8TF65; [1]) was 3.82 and the pKd (MAGI1_1, Q96QZ7; [1]) was “below the threshold”.

SVVSERISSV [HTR2C, P28335] was tested, and the pKd (LNX1_1, Q8TBB1; [2]) was “below the threshold”, the pKd (GRIP1_2, Q9Y3R0; [2]) was “below the threshold” and the pKd (MAGI2_4, Q86UL8; [2]) was “below the threshold”. For the same binder, the pKd (TJP1_3, Q07157; [2]) was “below the threshold”, the pKd (DLG3_3, Q92796; [2]) was “below the threshold” and the pKd (DLG3_1, Q92796; [2]) was “below the threshold”. The pKd (Inadl_9, Q8NI35; [2]) was “below the threshold”, the pKd (TJP3_3, O95049; [2]) was “below the threshold” and the pKd (LNX1_2, Q8TBB1; [2]) was “below the threshold”. For the same binder, the pKd (Inadl_8, Q8NI35; [2]) was 5.14, the pKd (FRMPD2_3, Q68DX3; [2]) was “below the threshold” and the pKd (DLG3_2, Q92796; [2]) was 4.68. For the same binder, the pKd (MAGI2_6, Q86UL8; [2]) was 4.64, the pKd (Inadl_3, Q8NI35; [2]) was “below the threshold” and the pKd (PTPN13_1, Q12923; [2]) was “below the threshold”. The pKd (CASK, O14936; [2]) was “below the threshold”, the pKd (TX1BP3, O14907; [2]) was 4.06 and the pKd (NHERF4_4, Q86UT5; [2]) was “below the threshold”. The pKd (LIN7B, Q9HAP6; [2]) was 3.7, the pKd (NHERF3_3, Q5T2W1; [2]) was “below the threshold” and the pKd (SNTG1, Q9NSN8; [2]) was 4.06. The pKd (MPP2, Q14168; [2]) was “below the threshold”, the pKd (APBA1_1, Q02410; [2]) was “below the threshold” and the pKd (DLG4_2, P78352; [2]) was 4.64. The pKd (GIPC2, Q8TF65; [2]) was “below the threshold” and the pKd (MAGI1_1, Q96QZ7; [2]) was “below the threshold”.

With VNKVWDQSSV [CIT, O14578] the pKd (LNX1_1, Q8TBB1; [1]) was “below the threshold”, the pKd (GRIP1_2, Q9Y3R0; [1]) was “below the threshold” and the pKd (MAGI2_4, Q86UL8; [1]) was “below the threshold”. For the same binder, the pKd (TJP1_3, Q07157; [1]) was “below the threshold”, the pKd (DLG3_3, Q92796; [1]) was 3.7 and the pKd (DLG3_1, Q92796; [1]) was “below the threshold”. For the same binder, the pKd (Inadl_9, Q8NI35; [1]) was “below the threshold”, the pKd (TJP3_3, O95049; [1]) was “below the threshold” and the pKd (LNX1_2, Q8TBB1; [1]) was “below the threshold”. For the same binder, the pKd (Inadl_8, Q8NI35; [1]) was 4, the pKd (FRMPD2_3, Q68DX3; [1]) was “below the threshold” and the pKd (DLG3_2, Q92796; [1]) was “below the threshold”. For the same binder, the pKd (MAGI2_6, Q86UL8; [1]) was 3.57, the pKd (Inadl_3, Q8NI35; [1]) was “below the threshold” and the pKd (PTPN13_1, Q12923; [1]) was “below the threshold”. For the same binder, the pKd (CASK, O14936; [1]) was “below the threshold”, the pKd (TX1BP3, O14907; [1]) was 6.25 and the pKd (NHERF4_4, Q86UT5; [1]) was “below the threshold”. The pKd (LIN7B, Q9HAP6; [1]) was “below the threshold”, the pKd (NHERF3_3, Q5T2W1; [1]) was “below the threshold” and the pKd (SNTG1, Q9NSN8; [1]) was 3.73. For the same binder, the pKd (MPP2, Q14168; [1]) was “below the threshold”, the pKd (APBA1_1, Q02410; [1]) was “below the threshold” and the pKd (DLG4_2, P78352; [1]) was “below the threshold”. For the same binder, the pKd (GIPC2, Q8TF65; [1]) was 3.51 and the pKd (MAGI1_1, Q96QZ7; [1]) was “below the threshold”.
